We go through 68 substances from patent US11433099B2, “Immunotherapy with B*08 restricted peptides and combination of peptides against cancers and related methods” (Immatics Biotechnologies GmbH, priority 2018, dated 2022).

This test concerns the target HLA-B*08:01 (Homo sapiens, UniProt P01889). The experiment in a line: MHC binding assay (UV-ligand exchange, beta2m ELISA). As to conditions: MHC class I binding score; binding to HLA-B*08:01 ranged by peptide exchange yield (UV-ligand exchange, β2m ELISA). The source says: Candidate peptides for T cell based therapies according to the present invention were further tested for their MHC binding capacity (affinity). The individual peptide-MHC complexes were produced by UV-ligand exchange, where a UV-sensitive peptide is cleaved upon UV-irradiation and exchanged with the peptide of interest as analyzed. Only peptide candidates that can effectively bind and stabilize the peptide-receptive MHC molecules prevent dissociation of the MHC complexes. To determine the yield of the exchange reaction, an ELISA was performed based on the detection of the light chain (β2m) of stabilized MHC complexes. The assay was performed as generally described in Rodenko et al. (Rodenko et al., 2006).
96 well MAXISorp plates (NUNC) were coated over night with 2 ug/ml streptavidin in PBS at room temperature, washed 4× and blocked for 1 h at 37° C. in 2% BSA containing blocking buffer. Refolded HLA-A*02:01/MLA-001 monomers served as standards, covering the range of 15-500 ng/ml. Peptide-MHC monomers of the UV-exchange reaction were diluted 100-fold in blocking buffer. Samples were incubated for 1 h at 37° C., washed four times, incubated with 2 ug/ml HRP conjugated anti-β2m for 1 h at 37° C., washed again and detected with TMB solution that is stopped with […]. Absorption was measured at 450 nm. Candidate peptides that show a high exchange yield (preferably higher than 50%, most preferred higher than 75%) are generally preferred for a generation and production of antibodies or fragments thereof, and/or T cell receptors or fragments thereof, as they show sufficient avidity to the MHC molecules and prevent dissociation of the MHC complexes.
On the technique in general: In an ELISA, binding on a coated surface is turned into a signal by an enzyme label.

With “118 (MAFVKHLL; listed as Homo sapiens) [compound 118]”, the Peptide exchange entry was “+++ (50% = +++)”.

“119 (FQRVSSVSF; listed as Homo sapiens) [compound 119]”: the Peptide exchange result is on record as “+++ (50% = +++)”.

Take “120 (AQRSEMVTL; listed as Homo sapiens) [compound 120]”: the Peptide exchange result is on record as “++ (20% = ++)”.

With “121 (YSQLSISL; listed as Homo sapiens) [compound 121]”, the Peptide exchange entry is recorded as “++ (20% = ++)”.

On to “122 (ESSAQPTAL; listed as Homo sapiens) [compound 122]”, for which the Peptide exchange entry is recorded as “++ (20% = ++)”.

For “123 (SLLPFTLSF; listed as Homo sapiens) [compound 123]”, the Peptide exchange entry was “++ (20% = ++)”.

With “124 (HSWTRTSV; listed as Homo sapiens) [compound 124]”, the Peptide exchange result is “+++ (50% = +++)”.

As for “125 (FPLVTPLL; listed as Homo sapiens) [compound 125]”, the Peptide exchange result is “+++ (50% = +++)”.

“126 (TAAEARLSL; listed as Homo sapiens) [compound 126]”: the Peptide exchange result was “++ (20% = ++)”.

In the case of “127 (EPVIRTVSI; listed as Homo sapiens) [compound 127]”, the Peptide exchange result was “+++ (50% = +++)”.

For “128 (HFHNRHVF; listed as Homo sapiens) [compound 128]”, the Peptide exchange entry is reported as “+++ (50% = +++)”.

Regarding “129 (HRILRLPAL; listed as Homo sapiens) [compound 129]”, the Peptide exchange entry was “+++ (50% = +++)”.

“130 (LPAPYQHQL; listed as Homo sapiens) [compound 130]”: the Peptide exchange result is given as “++ (20% = ++)”.

On to “131 (MSTKTTSI; listed as Homo sapiens) [compound 131]”, for which the Peptide exchange result is “++ (20% = ++)”.

In the case of “132 (IPIQAHQI; listed as Homo sapiens) [compound 132]”, the Peptide exchange entry is on record as “+++ (50% = +++)”.

Turning to “133 (QATPRVRIL; listed as Homo sapiens) [compound 133]”, the Peptide exchange result is “++ (20% = ++)”.

Consider “134 (DQRSRATL; listed as Homo sapiens) [compound 134]”, for which the Peptide exchange result was “++ (20% = ++)”.

In the case of “135 (EYLETKRLAF; listed as Homo sapiens) [compound 135]”, the Peptide exchange result is “+ (0% = +)”.

For the substance “136 (KMFYRKDVM; listed as Homo sapiens) [compound 136]”, the Peptide exchange entry is given as “+++ (50% = +++)”.

In the case of “137 (VQWKPPAL; listed as Homo sapiens) [compound 137]”, the Peptide exchange result is recorded as “++ (20% = ++)”.

Regarding “138 (TQHLTVATL; listed as Homo sapiens) [compound 138]”, the Peptide exchange result is “+++ (50% = +++)”.

Consider “139 (YGRIGISLF; listed as Homo sapiens) [compound 139]”, for which the Peptide exchange result was “++ (20% = ++)”.

Turning to “140 (IAVDKPITL; listed as Homo sapiens) [compound 140]”, the Peptide exchange entry is listed as “++ (20% = ++)”.

“141 (AQLKLVAL; listed as Homo sapiens) [compound 141]”: the Peptide exchange entry is given as “++ (20% = ++)”.

Consider “142 (YNLIYSMCL; listed as Homo sapiens) [compound 142]”, for which the Peptide exchange entry is reported as “+++ (50% = +++)”.

“143 (DADLREQAL; listed as Homo sapiens) [compound 143]”: the Peptide exchange entry is “++ (20% = ++)”.

Consider “144 (IEQIRAVL; listed as Homo sapiens) [compound 144]”, for which the Peptide exchange entry is recorded as “++ (20% = ++)”.

In the case of “145 (MIYRKALRL; listed as Homo sapiens) [compound 145]”, the Peptide exchange entry was “++ (20% = ++)”.

In the case of “146 (FQTAHFYL; listed as Homo sapiens) [compound 146]”, the Peptide exchange result was “+++ (50% = +++)”.

As to “147 (HAMDGASHL; listed as Homo sapiens) [compound 147]”, the Peptide exchange entry is on record as “++ (20% = ++)”.

With “148 (DVNPVSLQL; listed as Homo sapiens) [compound 148]”, the Peptide exchange result is listed as “++ (20% = ++)”.

Take “149 (TQKSVQVL; listed as Homo sapiens) [compound 149]”: the Peptide exchange entry is given as “++ (20% = ++)”.

With “150 (MRSSYIREL; listed as Homo sapiens) [compound 150]”, the Peptide exchange result was “++ (20% = ++)”.

For the substance “151 (DRHLTNRVL; listed as Homo sapiens) [compound 151]”, the Peptide exchange result is on record as “++ (20% = ++)”.

Consider “152 (FNKLVTEL; listed as Homo sapiens) [compound 152]”, for which the Peptide exchange result is “++ (20% = ++)”.

On to “153 (HAIPHYVTM; listed as Homo sapiens) [compound 153]”, for which the Peptide exchange result is “++ (20% = ++)”.

For “154 (VLKTLQEL; listed as Homo sapiens) [compound 154]”, the Peptide exchange entry is “++ (20% = ++)”.

Take “155 (LPASFPAVL; listed as Homo sapiens) [compound 155]”: the Peptide exchange result is recorded as “++ (20% = ++)”.

As to “156 (ILKEQSSSSF; listed as Homo sapiens) [compound 156]”, the Peptide exchange result is given as “++ (20% = ++)”.

Regarding “157 (QPYRFPQA; listed as Homo sapiens) [compound 157]”, the Peptide exchange entry is “++ (20% = ++)”.

Regarding “158 (DVIIKGNGL; listed as Homo sapiens) [compound 158]”, the Peptide exchange entry was “++ (20% = ++)”.

For “159 (DLRNKIIA; listed as Homo sapiens) [compound 159]”, the Peptide exchange result is “++ (20% = ++)”.

For “160 (LPINNTHI; listed as Homo sapiens) [compound 160]”, the Peptide exchange entry was “++ (20% = ++)”.

With “161 (DIVPPFSAF; listed as Homo sapiens) [compound 161]”, the Peptide exchange result was “++ (20% = ++)”.

Turning to “162 (LFKQTKINL; listed as Homo sapiens) [compound 162]”, the Peptide exchange result was “++ (20% = ++)”.

Turning to “163 (EVMAQFKEI; listed as Homo sapiens) [compound 163]”, the Peptide exchange entry is listed as “++ (20% = ++)”.

In the case of “164 (LPAPIPTLL; listed as Homo sapiens) [compound 164]”, the Peptide exchange entry is recorded as “++ (20% = ++)”.

Take “165 (QNSLRHNL; listed as Homo sapiens) [compound 165]”: the Peptide exchange result is “++ (20% = ++)”.

Consider “166 (VLSGGRILAL; listed as Homo sapiens) [compound 166]”, for which the Peptide exchange result is on record as “++ (20% = ++)”.

As to “167 (DMKITVSL; listed as Homo sapiens) [compound 167]”, the Peptide exchange result was “+++ (50% = +++)”.

Consider “168 (HVQDFTAF; listed as Homo sapiens) [compound 168]”, for which the Peptide exchange entry is on record as “++ (20% = ++)”.

With “169 (YELNNLHAL; listed as Homo sapiens) [compound 169]”, the Peptide exchange result is reported as “++ (20% = ++)”.

Consider “170 (SPANVRGQSL; listed as Homo sapiens) [compound 170]”, for which the Peptide exchange entry is recorded as “++ (20% = ++)”.

Take “171 (FPSQVPKQVL; listed as Homo sapiens) [compound 171]”: the Peptide exchange entry is listed as “++ (20% = ++)”.

As for “172 (PYEKVSRL; listed as Homo sapiens) [compound 172]”, the Peptide exchange entry is recorded as “++ (20% = ++)”.

On to “173 (YPLLKDPSL; listed as Homo sapiens) [compound 173]”, for which the Peptide exchange result is “+++ (50% = +++)”.

Take “174 (HAMPSPRIL; listed as Homo sapiens) [compound 174]”: the Peptide exchange result is listed as “++ (20% = ++)”.

“175 (MRFQQFLFA; listed as Homo sapiens) [compound 175]”: the Peptide exchange result is on record as “+ (0% = +)”.

Consider “176 (YVIQRQSVL; listed as Homo sapiens) [compound 176]”, for which the Peptide exchange entry is given as “++ (20% = ++)”.

Consider “177 (SVPVRSSPL; listed as Homo sapiens) [compound 177]”, for which the Peptide exchange entry is “++ (20% = ++)”.

With “178 (IPRLAVISI; listed as Homo sapiens) [compound 178]”, the Peptide exchange entry is recorded as “++ (20% = ++)”.

Take “179 (LPLTEHEL; listed as Homo sapiens) [compound 179]”: the Peptide exchange entry was “+++ (50% = +++)”.

In the case of “180 (LAVPIFVAL; listed as Homo sapiens) [compound 180]”, the Peptide exchange result was “++ (20% = ++)”.

In the case of “181 (SIRSSYSRF; listed as Homo sapiens) [compound 181]”, the Peptide exchange result is listed as “++ (20% = ++)”.

In the case of “182 (ILHLSAIAL; listed as Homo sapiens) [compound 182]”, the Peptide exchange result is listed as “++++ (75% = ++++)”.

On to “183 (YVSKPGAQL; listed as Homo sapiens) [compound 183]”, for which the Peptide exchange entry is “++ (20% = ++)”.

As for “184 (DRLKPLKM; listed as Homo sapiens) [compound 184]”, the Peptide exchange result is “++ (20% = ++)”.

As to “185 (MELKTVKPI; listed as Homo sapiens) [compound 185]”, the Peptide exchange result is listed as “++ (20% = ++)”.
